Broadly, the Km is the substrate concentration at which the rate is half of its maximum. By kcat is commonly meant the number of substrate molecules converted per active site and unit of time at saturation. A word on the kcat/Km: it is the turnover number divided by the Michaelis constant.

What all share (test): purified protein
Settings in all cases: air oxygen

Substrate in data set [1]: COc1ccccc1O
Substrate in data set [2]: CCn1c(=NN=c2sc3cc(S(=O)(=O)O)ccc3n2CC)sc2cc(S(=O)(=O)O)ccc21
Type of data set: biochemical, Coprinus comatus.

Substrate in data set [3]: COc1cc(C=NN=Cc2cc(OC)c(O)c(OC)c2)cc(OC)c1O
It is filed as biochemical, Coprinus comatus.

Substrate in data set [4]: Cc1cccc(C)c1O
Type of data set: biochemical, Coprinus comatus.

Where [5] appears, read: pH 5.0, optimal temperature 50 °C, 50.0 °C.
Where [6] appears, read: pH 3.0, optimal temperature 65 °C.
Setting [7] is: pH 5.0 (optimum elsewhere given as 5.5), optimal temperature 60 °C.
Where [8] appears, read: pH 5.5 (optimum elsewhere given as 5.0), optimal temperature 60 °C.
[9] abbreviates: pH 6.0, optimal temperature 60 °C, 60.0 °C.
Setting [10] is: pH 3.0, optimal temperature 60 °C.
The mark [11] stands for this setting: pH 6.0 (optimum elsewhere given as 5.5), optimal temperature 65 °C.
Setting [12] is: pH 5.5 (optimum elsewhere given as 6.0), optimal temperature 65 °C.

B1: Lac3 (Coprinus comatus) (protein)
chain: SVLIPHSTLTLTNQLIAPDGFQRSAIVVNGEHPGPLIQATKGDGFMVNVVNQLTDPTMQRAASVHWHGLSQRGTNWADGATGVNQCPISPNHSFEYTFTGGDSQAGTFWYHSHYFLQYCDGLRGPLVIYDPEDPWKNLYDVDDESTVLTLADWYHTPFPSIPGFPLPESTLINGKGRYPDGPNVDLSIVNVEKGKRYRFRLVSLACETSYLFGIDGHQLQVIETDGQNTVPVVVDKLRIFAGQRYSFVLDANQNIDNYWVRSLPANGMPKLVAGYEGGINSAILRYRGAPISDPQTNDNQNLILLEEAKLVPAQDPFPPGNPTAGGADFNVTLNFVLDVDLASGEPQFKLNDKVYRPPSVPILLKILSGARRPEELLPEGNLFSVPRDKVIEVTVPGGIAAGPHPMHLHGHTFSVVKSAGKNNQPNYLTPVRRDVTATSQEVDDYITIRFTTDNPGPWLLHCHLNKHHESGMVVVFVADVDSVAEENPVPDAWNDLCPIYDALSDAEKEVKIVSSLPMPV
notes: mature form (547-aa precursor, 28-aa putative signal peptide removed); pPICZalphaB-10AALac3; secreted from Pichia pastoris KM71H; glycosylated, about 75 kDa (55 kDa after endoH)
As to B1, the Km in “purified protein [1]” (setting [5]) was determined as 1114 µM; in “purified protein [2]” (setting [6]), 136 µM; in “purified protein [3]” (setting [7]), 87 µM; in the data set “purified protein [4]” (setting [8]), 1374 µM. The catalytic constant (kcat) came out at 0.418 s⁻¹ in the data set “purified protein [1]” (setting [5]), 3.48 s⁻¹ in the data set “purified protein [2]” (setting [6]), 32 s⁻¹ in “purified protein [3]” (setting [7]) and 0.307 s⁻¹ in the data set “purified protein [4]” (setting [8]). Moreover, the kcat/Km worked out at 375 M⁻¹ s⁻¹ in “purified protein [1]” (setting [5]), 25600 M⁻¹ s⁻¹ in the data set “purified protein [2]” (setting [6]), 367000 M⁻¹ s⁻¹ in the data set “purified protein [3]” (setting [7]) and 223 M⁻¹ s⁻¹ in “purified protein [4]” (setting [8]).

B2: Lac4 (Coprinus comatus) (protein)
chain: LSVGPRATLTLTNDVVAPDGFERSAIVVNGGHPGPLIQANKGDAYTINVVNRLTDSTMQRVSSIHWHGLSQRGTNWADGGSGVNQCPISPNHSFEYQFSGRKDQAGTFWYHSHYSIQYCDGLRGPLVIYDPNDPFKNLYDVDDESTVITLTDWYHTPFPSVTGPPTSDSTLINGKGRYPGGPNVDLSVINVERGKRYRFRLVALTCENSHLFGIDGHQLLVIETGGESTVPTLVDKITLLAGQRYSFVLDANQAVDNYWIRGLPRSGVPSLKAGYEGGLNSAILRYQGAPITEPQTTDNENAALLDEAQLVPTRNPFAPGRPTSGGADFNVTVNFELDLTTGSPHFKLNGKIYQPPTVPILLQIISGARKAEELLPEGNIYFVPRNKVVEVTVPGGIPGAPHPMHLHGHHFSVVKSAGKHNQVNYLTPVRRDTTASPVEVDDNTTIRFTTDSPGPWIFHCHFNKHQSIGMAVVFVADIDEVAEKNPTPDAWNDLCPIYQSLSESETVVEIVPMVKH
notes: mature form (532-aa precursor, 16-aa putative signal peptide removed); pPICZalphaB-10AALac4; secreted from Pichia pastoris KM71H; glycosylated, about 70 kDa (52 kDa after endoH)
Turning to B2, the Km in “purified protein [1]” (setting [9]) was 455 µM; in “purified protein [2]” (setting [10]) it was 205 µM; in “purified protein [3]” (setting [11]), 204 µM; in the data set “purified protein [4]” (setting [12]) it was 7131 µM. For the same protein, the kcat in the data set “purified protein [1]” (setting [9]) amounted to 0.196 s⁻¹; in “purified protein [2]” (setting [10]) it was 1.47 s⁻¹; in the data set “purified protein [3]” (setting [11]), 44.7 s⁻¹; in the data set “purified protein [4]” (setting [12]), 1.47 s⁻¹. The kcat/Km in the data set “purified protein [1]” (setting [9]) amounted to 503 M⁻¹ s⁻¹; in the data set “purified protein [2]” (setting [10]) it was 7170 M⁻¹ s⁻¹; in the data set “purified protein [3]” (setting [11]) it was 220000 M⁻¹ s⁻¹; in “purified protein [4]” (setting [12]), 206 M⁻¹ s⁻¹.
